Measured values: patent publication US20170320921A1 (Scripps Research, published 2017)

B1: Mpn400 (residues 41 to 582), His-tagged recombinant, lacking the membrane domain (other)
chain: HHHHHHSSGLVPRGSHMNEVLRLQSGETLIASGRSGNLSFQLYSKVNQNAKSKLNSISLTDGGYRSEIDLGDGSNFREDFRNFANNLSEAITDAPKDLLRPVPKVEVSGLIKTSSTFITPNFKAGYYDQVAADGKTLKYYQSTEYFNNRVVMPILQTTNGTLTANNRAYDDIFVDQGVPKFPGWFHDVDKAYYAGSNGQSEYLFKEWNYYVANGSPLYNVYPNHHFKQIKTIAFDAPRIKQGNTDGINLNLKQRNPDYVIINGLTGDGSTLKDLELPESVKKVSIYGDYHSINVAKQIFKNVLELEFYSTNQDNNFGFNPLVLGDHTNIIYDLFASKPFNYIDLTSLELKDNQDNIDASKLKRAVSDIYIRRRFERQMQGYWAGGYIDRYLVKNTNEKNVNKDNDTVYAALKDINLHLEETYTHGGNTMYRVNENYYPGASAYEAERATRDSEFQKEIVQRAELIGVVFEYGVKNLRPGLKYTVKFESPQEQVALKSTDKFQPVIGSVTDMSKSVTDLIGVLRDNAEILNITNVSKDETVVAELKEKLDRENVFQEIRT
B2: recombinant Protein M TD (His-tagged MG281 residues 74 to 468) (other)
chain: HHHHHHSSGLVPRGSHMSLSLNDGSYQSEIDLSGGANFREKFRNFANELSEAITNSPKGLDRPVPKTEISGLIKTGDNFITPSFKAGYYDHVASDGSLLSYYQSTEYFNNRVLMPILQTTNGTLMANNRGYDDVFRQVPSFSGWSNTKATTVSTSNNLTYDKWTYFAAKGSPLYDSYPNHFFEDVKTLAIDAKDISALKTTIDSEKPTYLIIRGLSGNGSQLNELQLPESVKKVSLYGDYTGVNVAKQIFANVVELEFYSTSKANSFGFNPLVLGSKTNVIYDLFASKPFTHIDLTQVTLQNSDNSAIDANKLKQAVGDIYNYRRFERQFQGYFAGGYIDKYLVKNVNTNKDSDDDLVYRSLKELNLHLEEAYREGDNTYYRVNENYYPGASIYENERASRDSEFQNEILKR
B3: 13PL IgG, monoclonal immunoglobulin from multiple myeloma patient 13PL (human IgG1κ) (antibody, V domains shown)
VH: AVSLVESGGGTVEPGSTLRLSCAASGFTFGSYAFHWVRQAPGDGLEWVAFISYNGSSKYYANFVKGRFTISRDNSSNTLSLQMNSLKASDTAVYYCARAPDCAQADCHKGAFGYWGQGTLVTVSS
VL: DIEMTQSPSSLSASTGDKVTITCQASQDIAQFLDWYQQRPGDTPKLLIYDASNLAIGVPSRFTGSGSGTDFTFTISSLQPEDIAVYYCQHYDDFPISFGPGTKLETKR
notes: also called multiple myeloma antibody 13PL; Multiple Myeloma antibody (13PL)
B4: PM2 (Protein M TD residues 74 to 482, Tyr158 to phenylalanine) (other)
chain: HHHHHHSSGLVPRGSHMSLSLNDGSYQSEIDLSGGANFREKFRNFANELSEAITNSPKGLDRPVPKTEISGLIKTGDNFITPSFKAGYYDHVASDGSLLSYFQSTEYFNNRVLMPILQTTNGTLMANNRGYDDVFRQVPSFSGWSNTKATTVSTSNNLTYDKWTYFAAKGSPLYDSYPNHFFEDVKTLAIDAKDISALKTTIDSEKPTYLIIRGLSGNGSQLNELQLPESVKKVSLYGDYTGVNVAKQIFANVVELEFYSTSKANSFGFNPLVLGSKTNVIYDLFASKPFTHIDLTQVTLQNSDNSAIDANKLKQAVGDIYNYRRFERQFQGYFAGGYIDKYLVKNVNTNKDSDDDLVYRSLKELNLHLEEAYREGDNTYYRVNENYYPGASIYENERASRDSEFQNEILKRAEQNGVTFDENIKR

Columns and labels:
[1] = target: T1, 4PL IgG, human multiple myeloma antibody (Mayo Clinic); experiment: Biolayer Interferometry; antibody on protein G sensors, Mpn400 in solution
[2] = target: T2, Human IgG1κ (Sigma Aldrich catalog no. 15154), myeloma antibody; experiment: as above
T2 construct: also called IgG1k

[3] = target: T3, Human IgG2κ (Sigma Aldrich catalog no. 15404), myeloma antibody; experiment: as above
T3 construct: also called IgG2k

[4] = target: T4, Human IgG2λ (Sigma Aldrich catalog no. 15279), myeloma antibody; experiment: as above
T4 construct: also called IgG21

[5] = target: T5, Human IgG3κ (Sigma Aldrich catalog no. 15654), myeloma antibody; experiment: as above
T5 construct: also called IgG3k

[6] = target: T6, Human IgG4κ (Sigma Aldrich catalog no. 14639), myeloma antibody; experiment: as above
[7] = target: T7, PGT135 Fab (against HIV-1 gp120, κ light chain); experiment: Biolayer Interferometry (Octet Red)
T7 construct: also called Fab PGT135

[8] = target: T8, Fab CR9114 (against influenza hemagglutinin, λ light chain); experiment: Biolayer Interferometry (Octet Red)
T8 construct: also called CR9114 Fab

[9] = target: B1; experiment: Biolayer Interferometry; antibody on protein G sensors, Mpn400 in solution
[10] = target: T1, 4PL IgG, human multiple myeloma …; experiment: Biolayer Interferometry; antibody on protein G sensors, PM2 in solution
[11] = target: T3, Human IgG2κ (Sigma Aldrich catalog no. …); experiment: as above
[12] = target: T4, Human IgG2λ (Sigma Aldrich catalog no. …); experiment: as above
[13] = target: T5, Human IgG3κ (Sigma Aldrich catalog no. …); experiment: Biolayer Interferometry; antibody (printed IgG3λ) on protein G sensors, PM2 in solution
[14] = target: T6, Human IgG4κ (Sigma Aldrich catalog no. …); experiment: Biolayer Interferometry; antibody (printed IgG4λ) on protein G sensors, PM2 in solution

Question: With B1 as the binder, how does the Kd [1] read?
Answer: Its Kd is 0.6 nM.

Question: And the Kd [2]?
Answer: Its Kd is 0.48 nM.

Question: What about the Kd [3] of the same binder?
Answer: The Kd was 6.23 nM.

Question: What about the Kd [4] of the same binder?
Answer: Its Kd is 13 nM.

Question: And the Kd [5]?
Answer: The Kd was 0.93 nM.

Question: What about the Kd [6] of the same binder?
Answer: The Kd was 0.43 nM.

Question: For B2, which Kd [7] is on record?
Answer: Its Kd is 3.7 nM.

Question: And the Kd [8]?
Answer: The Kd was 1.9 nM.

Question: For B3, which Kd [9] is on record?
Answer: Its Kd is 0.5 nM.

Question: How did the Kd [10] turn out when B4 was run?
Answer: The Kd was 0.6 nM.

Question: And the Kd [11]?
Answer: The Kd was 9.56 nM.

Question: And the Kd [12]?
Answer: Its Kd is 8.9 nM.

Question: What about the Kd [13] of the same binder?
Answer: Its Kd is 6.6 nM.

Question: What about the Kd [14] of the same binder?
Answer: The Kd was 1.84 nM.
